What was measured:
[1] = biological target: Salmonella typhimurium sigma^70, purified (Salmonella typhimurium) (UniProt P0A2E3)
[2] = biological target: E. coli sigma^70 (E. coli) (UniProt P00579)
[3] = biological target: E. coli core RNA polymerase (E. coli) (UniProt P0A7Z4)

Substance | RNA polymerase activity, [^3 H]UTP (nmol), after adding S. typhimurium sigma^70 to E. coli RNA polymerase inhibited by AsiA ([^3 H]UTP (nmol)) [1] | RNA polymerase activity, [^3 H]UTP (nmol), with sigma^70 preincubated with AsiA ([^3 H]UTP (nmol)) [1] | E. coli RNA polymerase assay (sigma^70 dependent transcription on T4 phage DNA) [2] | RNA polymerase activity, [^3 H]UTP (nmol) ([^3 H]UTP (nmol)) [3]
AsiA protein (10 kDa anti-sigma^70 factor of bacteriophage T4), purified | 3 | 0.98 | > 80 % inhibited | –
Salmonella typhimurium sigma^70, purified (from UniProt P0A2E3) | – | – | – | 2.3
